± gives the standard deviation of the averaged measurements.
These sequences were tested on Saccharomyces cerevisiae (assay: protein stability index of tFT-peptide fusion (C-terminal peptide) (PSI (0-1 scale)); higher = more stable (slower turnover)). Details: genetic background: wild type; temperature: 30 C.
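Also: PSI is a weighted mean of sequencing reads over stability bins, variants kept only with over 10 reads, mCherry proximal and sfGFP distal, peptide attached via GGGS linker.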

Sequence	protein stability index
PRYRTPPLPPPG	0.55 ± 0.012
SFSPLRLPPSLL	0.724 ± 0.049
DGFGVARGVSWG	0.752 ± 0.035
GWFVVYQIGSEV	0.564 ± 0.063
AGFTATTPIRGV	0.715 ± 0.022
APACRLTLVSDF	0.752 ± 0.014
LCLFSVRPARLL	0.753 ± 0.13
SPGVFQQRHHTY	0.665 ± 0.087
GVLGCRWWGSMG	0.657 ± 0.015
RVSSAAGGSIDL	0.738 ± 0.1
AGGTMVVVVRSC	0.51175 ± 3.2e-05
TLLVLGLSWGLP	0.618 ± 0.044
LHAPFPLPPPPP	0.647 ± 0.026
FGVSLWPGFLYL	0.587 ± 0.0065
SQPLPNRLKTRG	0.695 ± 0.032
GGGWGWAGENTR	0.698 ± 0.038
PPPPPCSPPSPP	0.681 ± 0.025
GQIACSECGGGG	0.679 ± 0.027
GATDMVTSGEWV	0.757 ± 0.021
HPLPPPLLPSPA	0.659 ± 0.096
ERSDRLWEVSKG	0.685 ± 0.035
HVSSKMEWGNRD	0.763 ± 0.066
PQIRTPIPGSFS	0.743 ± 0.074
PPLPPLPPLPPP	0.72 ± 0.08
MHLRFYFLKTDV	0.597 ± 0.02
PLFFLPLPPPLF	0.6881 ± 0.0046

Sequence	protein stability index
RSPPAPPHSCPP	0.69 ± 0.14
SHRTRPSQTPTQ	0.643 ± 0.05
YQLEDSNEKVEN	0.712 ± 0.085
RNAEVWDNLFEG	0.6969 ± 0.0061
RVNERNAEAGGD	0.641 ± 0.043
VVGYAIRVRSGL	0.593 ± 0.018
SRKSDTMPSYPL	0.791 ± 0.26
RRRGQLNTAEWK	0.717 ± 0.065
DWSHLLTSHAII	0.703 ± 0.041
VGFYRADSLLIF	0.5763 ± 0.0049
RSWGRVCFGGVV	0.657 ± 0.054
PGSCGATTRCLH	0.481 ± 0.075
GLGGPYNSHMFT	0.991 ± 0.013
RDARTWTVSHGT	0.703 ± 0.033
YNLASGIEVPID	0.664 ± 0.013
FLFRLWGLLAEG	0.583 ± 0.082
ARLPSSRLDLSP	0.686 ± 0.056
SSLIGHTLRPLV	0.686 ± 0.022
CSHSLVLRFCPF	0.607 ± 0.059
PPPPPPPPPPTL	0.712 ± 0.028
GMLLCAGGISKG	0.584 ± 0.011
IGGLSLGESIGG	0.689 ± 0.02
KVMSLACRLTSE	0.843 ± 0.11
SRPPPYAPPSPP	0.716 ± 0.01
NHFQYHSPVASE	0.688 ± 0.028
PPPPPPPALPSL	0.6668 ± 0.0034

Sequence	protein stability index
RGKATREAGKKR	0.7916 ± 0.0028
CVERVGSTPMDS	0.607 ± 0.053
IEDEHLEDAPYG	0.678 ± 0.048
SVGGGRWRYGGR	0.662 ± 0.04
GGVRRRSAVGVR	0.65129 ± 0.00017
PLSPPPSLPVPL	0.659 ± 0.051
HPPPHPPFPPRF	0.73 ± 0.016
MGVGRFEWVVGG	0.665 ± 0.053
KTNLSNRKKHKG	0.653 ± 0.051
KEKKLKIIQKGT	0.578 ± 0.09
PYTHFFSPPFWP	0.766 ± 0.04
DVHPPPPAPPPP	0.747 ± 0.12
VRFKDFDDLGSL	0.704 ± 0.067
YSPAYDHLRPDH	0.7034 ± 0.0069
GVIGFNSLYGIA	0.632 ± 0.027
GGGRGVVVTCST	0.713 ± 0.038
FPPCSFLARPFL	0.669 ± 0.019
SFLRTRPHAPLP	0.6363 ± 0.0021
RLSVWTFCSMVW	0.555 ± 0.0085
INNTKQSENRKS	0.701 ± 0.054
RDELSYIDICLT	0.691 ± 0.025
WGGWGVGGRVLW	0.675 ± 0.066
GLVWGGCGTVGG	0.768 ± 0.17
PPAPRPPSPRPP	0.693 ± 0.033
KRKKQERKREKK	0.692 ± 0.05
LTATNEARNIDH	0.659 ± 0.027

Sequence	protein stability index
RGAKKMNHRGRS	0.675 ± 0.052
VNMMYEIWPLGN	0.624 ± 0.038
ITRSEEAKWLCA	0.685 ± 0.045
DLFPTLFFIRSR	0.689 ± 0.073
NKLKEKNEKYKV	0.659 ± 0.025
IALPPPLLPPSL	0.706 ± 0.051
CSRPPFLLFVSP	0.702 ± 0.0076
PLPAPPTPPLPP	0.763 ± 0.039
EMTWGSIWPERH	0.731 ± 0.05
PPSPPPPPVVVP	0.606 ± 0.11
LSLFISPTACLT	0.584 ± 0.01
LPPPVSPLVCLL	0.752 ± 0.047
PPPPSLVPPSPL	0.677 ± 0.063
PRLIESYRPITS	0.715 ± 0.09
MKIKIEINKNKT	0.654 ± 0.032
TRLSTPGYLILS	0.724 ± 0.016
FDACPAPFGLVV	0.67033 ± 0.0004
DQRCRLQGRYQR	0.733 ± 0.12
GRQRGGRENEGE	0.673 ± 0.064
PPTSPGPGSLYS	0.693 ± 0.036
GFCRKESVRCEK	0.683 ± 0.018
RGGGGAWAGGVA	0.734 ± 0.019
GPGAGRRKSAER	0.61607 ± 0.00056
